This is an account of results in patent US20190083585.

The data set has as its target T1, fluorescently quenched α-gliadin hexapeptide analogue QXL520-PQPQLP-K(5-FAM)-NH2.
T1 chain: PQPQLP

B1: Kumamolisin-As N291D, Q361D (protein)
chain: AAPTAYTPLDVAQAYQFPEGLDGQGQCIAIIELGGGYDEASLAQYFASLGVPAPQVVSVSVDGASNQPTGDPSGPDGEVELDIEVAGALAPGAKFAVYFAPDTDAGFLDAITTAIHDPTLKPSVVSISWGGPEDSWTSAAIAAMNRAFLDAAALGVTVLAAAGDSGSTDGEDDGLYHVDFPAASPYVLACGGTRLVASGGRIAQETVWNDGPDGGATGGGVSRIFPLPAWQEHANVPPSANPGASSGRGVPDLAGNADPATGYEVVIDGEATVIGGTSAVAPLFAALVARINQKLGKAVGYLNPTLYQLPADVFHDITEGNNDIANRAQIYQAGPGWDPCTGLGSPIGVRLLQALLPSASQPQPGSTENLYFQSGALEHHHHHH
The protein B1 returned a Fold Change in Activity of PQ Hydrolysis Relative to Wild Type Kumamolysin-As of 7.5 fold.

B2: Kumamolisin-As N291D, D293A, G319S, D358G, Q361D, D368H (protein)
chain: AAPTAYTPLDVAQAYQFPEGLDGQGQCIAIIELGGGYDEASLAQYFASLGVPAPQVVSVSVDGASNQPTGDPSGPDGEVELDIEVAGALAPGAKFAVYFAPDTAAGFLDAITTAIHDPTLKPSVVSISWSGPEDSWTSAAIAAMNRAFLDAAALGVTVLAAAGDSGSTGGEDDGLYHVHFPAASPYVLACGGTRLVASGGRIAQETVWNDGPDGGATGGGVSRIFPLPAWQEHANVPPSANPGASSGRGVPDLAGNADPATGYEVVIDGEATVIGGTSAVAPLFAALVARINQKLGKAVGYLNPTLYQLPADVFHDITEGNNDIANRAQIYQAGPGWDPCTGLGSPIGVRLLQALLPSASQPQPGSTENLYFQSGALEHHHHHH
As to B2, the Fold Change in Activity of PQ Hydrolysis Relative to Wild Type Kumamolysin-As turned out to be 40.9 fold.

B3: Kumamolisin-As N291D, D293A, D358N (protein)
chain: AAPTAYTPLDVAQAYQFPEGLDGQGQCIAIIELGGGYDEASLAQYFASLGVPAPQVVSVSVDGASNQPTGDPSGPDGEVELDIEVAGALAPGAKFAVYFAPDTAAGFLDAITTAIHDPTLKPSVVSISWGGPEDSWTSAAIAAMNRAFLDAAALGVTVLAAAGDSGSTNGEQDGLYHVDFPAASPYVLACGGTRLVASGGRIAQETVWNDGPDGGATGGGVSRIFPLPAWQEHANVPPSANPGASSGRGVPDLAGNADPATGYEVVIDGEATVIGGTSAVAPLFAALVARINQKLGKAVGYLNPTLYQLPADVFHDITEGNNDIANRAQIYQAGPGWDPCTGLGSPIGVRLLQALLPSASQPQPGSTENLYFQSGALEHHHHHH
Protein B3 registered a Fold Change in Activity of PQ Hydrolysis Relative to Wild Type Kumamolysin-As of 24 fold.

B4: Kumamolisin-As N291D, D293A (protein)
chain: AAPTAYTPLDVAQAYQFPEGLDGQGQCIAIIELGGGYDEASLAQYFASLGVPAPQVVSVSVDGASNQPTGDPSGPDGEVELDIEVAGALAPGAKFAVYFAPDTAAGFLDAITTAIHDPTLKPSVVSISWGGPEDSWTSAAIAAMNRAFLDAAALGVTVLAAAGDSGSTDGEQDGLYHVDFPAASPYVLACGGTRLVASGGRIAQETVWNDGPDGGATGGGVSRIFPLPAWQEHANVPPSANPGASSGRGVPDLAGNADPATGYEVVIDGEATVIGGTSAVAPLFAALVARINQKLGKAVGYLNPTLYQLPADVFHDITEGNNDIANRAQIYQAGPGWDPCTGLGSPIGVRLLQALLPSASQPQPGSTENLYFQSGALEHHHHHH
In turn, B4 came in with a Fold Change in Activity of PQ Hydrolysis Relative to Wild Type Kumamolysin-As of 15 fold.

B5: Kumamolisin-As N291D, G319S, S354N, D358G, Q361D, D368H (protein)
chain: AAPTAYTPLDVAQAYQFPEGLDGQGQCIAIIELGGGYDEASLAQYFASLGVPAPQVVSVSVDGASNQPTGDPSGPDGEVELDIEVAGALAPGAKFAVYFAPDTDAGFLDAITTAIHDPTLKPSVVSISWSGPEDSWTSAAIAAMNRAFLDAAALGVTVLAAAGDNGSTGGEDDGLYHVHFPAASPYVLACGGTRLVASGGRIAQETVWNDGPDGGATGGGVSRIFPLPAWQEHANVPPSANPGASSGRGVPDLAGNADPATGYEVVIDGEATVIGGTSAVAPLFAALVARINQKLGKAVGYLNPTLYQLPADVFHDITEGNNDIANRAQIYQAGPGWDPCTGLGSPIGVRLLQALLPSASQPQPGSTENLYFQSGALEHHHHHH
B5: the Fold Change in Activity of PQ Hydrolysis Relative to Wild Type Kumamolysin-As is 50 fold.

B6: Kumamolisin-As S262G, T292S, N291D, G319S, D358G, D368H (protein)
chain: AAPTAYTPLDVAQAYQFPEGLDGQGQCIAIIELGGGYDEASLAQYFASLGVPAPQVVSVSVDGASNQPTGDPGGPDGEVELDIEVAGALAPGAKFAVYFAPDSDAGFLDAITTAIHDPTLKPSVVSISWSGPEDSWTSAAIAAMNRAFLDAAALGVTVLAAAGDSGSTGGEQDGLYHVHFPAASPYVLACGGTRLVASGGRIAQETVWNDGPDGGATGGGVSRIFPLPAWQEHANVPPSANPGASSGRGVPDLAGNADPATGYEVVIDGEATVIGGTSAVAPLFAALVARINQKLGKAVGYLNPTLYQLPADVFHDITEGNNDIANRAQIYQAGPGWDPCTGLGSPIGVRLLQALLPSASQPQPGSTENLYFQSGALEHHHHHH
Turning to B6, the Fold Change in Activity of PQ Hydrolysis Relative to Wild Type Kumamolysin-As came out at 29 fold.

B7: Kumamolisin-As T292S, N291D, G319S, D358G, D368H (protein)
chain: AAPTAYTPLDVAQAYQFPEGLDGQGQCIAIIELGGGYDEASLAQYFASLGVPAPQVVSVSVDGASNQPTGDPSGPDGEVELDIEVAGALAPGAKFAVYFAPDSDAGFLDAITTAIHDPTLKPSVVSISWSGPEDSWTSAAIAAMNRAFLDAAALGVTVLAAAGDSGSTGGEQDGLYHVHFPAASPYVLACGGTRLVASGGRIAQETVWNDGPDGGATGGGVSRIFPLPAWQEHANVPPSANPGASSGRGVPDLAGNADPATGYEVVIDGEATVIGGTSAVAPLFAALVARINQKLGKAVGYLNPTLYQLPADVFHDITEGNNDIANRAQIYQAGPGWDPCTGLGSPIGVRLLQALLPSASQPQPGSTENLYFQSGALEHHHHHH
As for B7, the Fold Change in Activity of PQ Hydrolysis Relative to Wild Type Kumamolysin-As came out at 49 fold.

B8: Kumamolisin-As N291D, D358N (protein)
chain: AAPTAYTPLDVAQAYQFPEGLDGQGQCIAIIELGGGYDEASLAQYFASLGVPAPQVVSVSVDGASNQPTGDPSGPDGEVELDIEVAGALAPGAKFAVYFAPDTDAGFLDAITTAIHDPTLKPSVVSISWGGPEDSWTSAAIAAMNRAFLDAAALGVTVLAAAGDSGSTNGEQDGLYHVDFPAASPYVLACGGTRLVASGGRIAQETVWNDGPDGGATGGGVSRIFPLPAWQEHANVPPSANPGASSGRGVPDLAGNADPATGYEVVIDGEATVIGGTSAVAPLFAALVARINQKLGKAVGYLNPTLYQLPADVFHDITEGNNDIANRAQIYQAGPGWDPCTGLGSPIGVRLLQALLPSASQPQPGSTENLYFQSGALEHHHHHH
B8 showed a Fold Change in Activity of PQ Hydrolysis Relative to Wild Type Kumamolysin-As of 18.9 fold.

B9: Kumamolisin-As N291D (protein)
chain: AAPTAYTPLDVAQAYQFPEGLDGQGQCIAIIELGGGYDEASLAQYFASLGVPAPQVVSVSVDGASNQPTGDPSGPDGEVELDIEVAGALAPGAKFAVYFAPDTDAGFLDAITTAIHDPTLKPSVVSISWGGPEDSWTSAAIAAMNRAFLDAAALGVTVLAAAGDSGSTDGEQDGLYHVDFPAASPYVLACGGTRLVASGGRIAQETVWNDGPDGGATGGGVSRIFPLPAWQEHANVPPSANPGASSGRGVPDLAGNADPATGYEVVIDGEATVIGGTSAVAPLFAALVARINQKLGKAVGYLNPTLYQLPADVFHDITEGNNDIANRAQIYQAGPGWDPCTGLGSPIGVRLLQALLPSASQPQPGSTENLYFQSGALEHHHHHH
B9 registered a Fold Change in Activity of PQ Hydrolysis Relative to Wild Type Kumamolysin-As of 10 fold.

B10: Kumamolisin-As N291D, G319S, D358G, Q361D, D368H (protein)
chain: AAPTAYTPLDVAQAYQFPEGLDGQGQCIAIIELGGGYDEASLAQYFASLGVPAPQVVSVSVDGASNQPTGDPSGPDGEVELDIEVAGALAPGAKFAVYFAPDTDAGFLDAITTAIHDPTLKPSVVSISWSGPEDSWTSAAIAAMNRAFLDAAALGVTVLAAAGDSGSTGGEDDGLYHVHFPAASPYVLACGGTRLVASGGRIAQETVWNDGPDGGATGGGVSRIFPLPAWQEHANVPPSANPGASSGRGVPDLAGNADPATGYEVVIDGEATVIGGTSAVAPLFAALVARINQKLGKAVGYLNPTLYQLPADVFHDITEGNNDIANRAQIYQAGPGWDPCTGLGSPIGVRLLQALLPSASQPQPGSTENLYFQSGALEHHHHHH
B10 yielded a Fold Change in Activity of PQ Hydrolysis Relative to Wild Type Kumamolysin-As of 23.1 fold.

B11: Kumamolisin-As S354N, D358G, D368H (protein)
chain: AAPTAYTPLDVAQAYQFPEGLDGQGQCIAIIELGGGYDEASLAQYFASLGVPAPQVVSVSVDGASNQPTGDPSGPDGEVELDIEVAGALAPGAKFAVYFAPNTDAGFLDAITTAIHDPTLKPSVVSISWGGPEDSWTSAAIAAMNRAFLDAAALGVTVLAAAGDNGSTGGEQDGLYHVHFPAASPYVLACGGTRLVASGGRIAQETVWNDGPDGGATGGGVSRIFPLPAWQEHANVPPSANPGASSGRGVPDLAGNADPATGYEVVIDGEATVIGGTSAVAPLFAALVARINQKLGKAVGYLNPTLYQLPADVFHDITEGNNDIANRAQIYQAGPGWDPCTGLGSPIGVRLLQALLPSASQPQPGSTENLYFQSGALEHHHHHH
B11 had a Fold Change in Activity of PQ Hydrolysis Relative to Wild Type Kumamolysin-As of 9 fold.

B12: Kumamolisin-As N291D, D293A, D358G, Q361D (protein)
chain: AAPTAYTPLDVAQAYQFPEGLDGQGQCIAIIELGGGYDEASLAQYFASLGVPAPQVVSVSVDGASNQPTGDPSGPDGEVELDIEVAGALAPGAKFAVYFAPDTAAGFLDAITTAIHDPTLKPSVVSISWGGPEDSWTSAAIAAMNRAFLDAAALGVTVLAAAGDSGSTGGEDDGLYHVDFPAASPYVLACGGTRLVASGGRIAQETVWNDGPDGGATGGGVSRIFPLPAWQEHANVPPSANPGASSGRGVPDLAGNADPATGYEVVIDGEATVIGGTSAVAPLFAALVARINQKLGKAVGYLNPTLYQLPADVFHDITEGNNDIANRAQIYQAGPGWDPCTGLGSPIGVRLLQALLPSASQPQPGSTENLYFQSGALEHHHHHH
B12 gave a Fold Change in Activity of PQ Hydrolysis Relative to Wild Type Kumamolysin-As of 15 fold.

B13: Kumamolisin-As N291D, D293A, Q361D, D358N (protein)
chain: AAPTAYTPLDVAQAYQFPEGLDGQGQCIAIIELGGGYDEASLAQYFASLGVPAPQVVSVSVDGASNQPTGDPSGPDGEVELDIEVAGALAPGAKFAVYFAPDTAAGFLDAITTAIHDPTLKPSVVSISWGGPEDSWTSAAIAAMNRAFLDAAALGVTVLAAAGDSGSTNGEDDGLYHVDFPAASPYVLACGGTRLVASGGRIAQETVWNDGPDGGATGGGVSRIFPLPAWQEHANVPPSANPGASSGRGVPDLAGNADPATGYEVVIDGEATVIGGTSAVAPLFAALVARINQKLGKAVGYLNPTLYQLPADVFHDITEGNNDIANRAQIYQAGPGWDPCTGLGSPIGVRLLQALLPSASQPQPGSTENLYFQSGALEHHHHHH
With B13, the Fold Change in Activity of PQ Hydrolysis Relative to Wild Type Kumamolysin-As turned out to be 14.8 fold.

B14: Kumamolisin-As N291D, Q361D, D358G (protein)
chain: AAPTAYTPLDVAQAYQFPEGLDGQGQCIAIIELGGGYDEASLAQYFASLGVPAPQVVSVSVDGASNQPTGDPSGPDGEVELDIEVAGALAPGAKFAVYFAPDTDAGFLDAITTAIHDPTLKPSVVSISWGGPEDSWTSAAIAAMNRAFLDAAALGVTVLAAAGDSGSTGGEDDGLYHVDFPAASPYVLACGGTRLVASGGRIAQETVWNDGPDGGATGGGVSRIFPLPAWQEHANVPPSANPGASSGRGVPDLAGNADPATGYEVVIDGEATVIGGTSAVAPLFAALVARINQKLGKAVGYLNPTLYQLPADVFHDITEGNNDIANRAQIYQAGPGWDPCTGLGSPIGVRLLQALLPSASQPQPGSTENLYFQSGALEHHHHHH
On to B14, for which the Fold Change in Activity of PQ Hydrolysis Relative to Wild Type Kumamolysin-As turned out to be 20 fold.
